Here are results for one molecule from patent publication US20230009539A1 (CLEVELAND CLINIC FOUNDATION, published 2023).

The assay has as its target T1, IKKi (endogenous, MEFs) (mouse (MEFs), UniProt Q9R0T8 1-717).
T1 sequence (looked up): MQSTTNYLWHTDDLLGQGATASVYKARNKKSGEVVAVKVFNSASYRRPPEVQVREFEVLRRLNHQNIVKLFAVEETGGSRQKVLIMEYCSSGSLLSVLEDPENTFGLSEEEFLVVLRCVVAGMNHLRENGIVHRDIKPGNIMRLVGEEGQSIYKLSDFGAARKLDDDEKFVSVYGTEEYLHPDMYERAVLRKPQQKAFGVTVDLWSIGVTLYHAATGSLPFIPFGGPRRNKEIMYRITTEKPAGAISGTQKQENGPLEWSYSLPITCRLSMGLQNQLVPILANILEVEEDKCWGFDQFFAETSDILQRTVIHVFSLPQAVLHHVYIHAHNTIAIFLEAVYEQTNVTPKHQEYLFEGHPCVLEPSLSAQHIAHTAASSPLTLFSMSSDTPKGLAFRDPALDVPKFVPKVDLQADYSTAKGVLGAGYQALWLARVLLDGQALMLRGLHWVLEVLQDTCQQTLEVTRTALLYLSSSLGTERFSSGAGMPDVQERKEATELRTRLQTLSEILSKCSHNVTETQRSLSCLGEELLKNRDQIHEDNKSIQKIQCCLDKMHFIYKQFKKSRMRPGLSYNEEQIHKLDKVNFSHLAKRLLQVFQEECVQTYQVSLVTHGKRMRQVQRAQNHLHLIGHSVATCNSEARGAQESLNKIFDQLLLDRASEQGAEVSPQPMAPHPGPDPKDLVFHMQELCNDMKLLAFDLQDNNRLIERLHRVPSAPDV
In words: anti-FLAG immunoprecipitation from cytoplasmic and nuclear fractions of reconstituted MEFs (FIG. 5G). On the procedure:
Immunoblot, immunoprecipitation and nuclear fractionation: Cell were harvested and lysed on ice in a lysis buffer containing 0.5% Triton X-100, 20 mM Hepes pH 7.4, 150 mM NaCl, 12.5 mM-glycerophosphate, 1.5 mM MgCl2, 10 mM NaF, 2 mM dithiothreitol, 1 mM sodium orthovanadate, 2 mM EGTA, […], and 1 mM phenylmethylsulfonyl fluoride for 20 minutes, followed by centrifuging at 12,000 rpm for 15 minutes to extract clear lysates. For immunoprecipitation, cell lysates were incubated with 1 μg of antibody and A-sepharose beads at 4 degree overnight. After incubation, the beads were washed four times with lysis buffer and the precipitates were eluted with 2× sample buffer. Elutes and whole cell extracts were resolved on SDS-PAGE followed by immunobloting with antibodies. Nuclear fractionation was performed using NUCLEI EZ PREP kit purchased from Sigma in accordance with the manufacturer's instruction. Nuclear pellets were suspended in 30p1 of nuclear extraction buffer (20 mM HEPES, 400 mM NaCl, 1 mM EDTA, 1 mM EGTA in water, pH 7.9) containing freshly prepared 1 mM DTT and protease inhibitor cocktail. After 1.5 h incubation on ice bath with intermittent vortexing, extracts were centrifuged and supernatant was collected for immunoprecipitation.

B1: FLAG-tagged mouse wild-type Act1 (WT) (other, UniProt Q8N7N6 1-555, looked up)
chain: MNRSIPVEVDESEPFPSQLLKPIPEYSPEEELEPPAPNTRNMAPSSLSVLQCPPLKLANHQPVSQQVTCLRAKVLEEGEASFFRRHPELGKDISSCSSGASEPESELGALPPEHRFTLTEKRNRWLGSQLSAASPDTGHESDKSDPSLPNALADSFSGGQEMMPRPRPRPGPHRHRAAPDVPTIDTGYDSQPQDVLGIRQLERPLPLTSSCYLQDLPGPLRSRELPPQFELERYPMNAQLLPPHPSPQAPWNCQYYCPGGPYHHQVPHGHGYPPAAAYQQVLQPALPGQVLPGARARGPRPVQKVILNDSSPQDQEERPAQRDFSFPRLPRDQLYRPPSNGVEAPEESLDLPAELRPHGPQAPSLAAVPRPPSNPLARGTLRTSNLPEELRKVFITYSMDTAMEVVKFVNFLLVNGFQTAIDIFEDRIRGIDIIKWMERYLRDKTVMIIVAISPKYKQDVEGAESQLDEDEHGLHTKYIHRMMQIEFISQGSMNFRFIPVLFPNAKKEHVPTWLQNTHVYSWPKNKKNILLRLLREEEYVAPPRGPLPTLQVVPL
notes: also called flag-tagged mAct1; flag-Act1; not shown: FLAG tag
Consider B1, for which the binding result is “binds”.
